The assay deals with T1, amyloid-beta peptide (1-40), freshly prepared synthetic (UniProt P05067 672-711, 125I label when used as tracer; residue not stated).
T1 construct: domain: amyloid-beta peptide (1-40)
Description: radioligand binding to coated microtiter wells.

B1: TrcHis-chloramphenicol acetyltransferase (CAT) fusion protein (other)
chain: MEKKITGYTTVDISQWHRKEHFEAFQSVAQCTYNQTVQLDITAFLKTVKKNKHKFYPAFIHILARLMNAHPEFRMAMKDGELVIWDSVHPCYTVFHEQTETFSSLWSEYHDDFRQFLHIYSQDVACYGENLAYFPKGFIENMFFVSANPWVSFTSFDLNVANMDNFFAPVFTMGKYYTQGDKVLMPLAIQVHHAVCDGFHVGRMLNELQQYCDEWQGGA
notes: also called TrcHis-CAT; not shown: N-terminal TrcHis leader of the Invitrogen control construct
In the case of B1, the binding result is recorded as “no binding (tested: 100 nM)”.

The values above are taken from patent US6994974 (TRUSTEES OF COLUMBIA UNIVERSITY IN THE CITY OF NEW YORK, dated 2006).
